Assay results from the supplement of paper PMC7877785.
± gives the uncertainty stated by the source.

Experiment: self-splicing fitness, log relative to wild type (ln ratio); higher = more splicing; Tetrahymena group I intron in knt gene, E. coli kanamycin selection, DiMSum; sequences stand for … in CUCUCU…GGAGGGAAAAGUUAUCAGGCAUGCACCUGGUAGCUAGUCUUUAAACCAAUAGAUUGCAUCGGUUUAAAAGGCAAGACCGUCAAAUUGCGGGAAAGGGGUCAACAGCCGUUCAGUACCAAGUCUCAGGGGAAACUUUGAGAUGGCCUUGCAAAGGGUAUGGUAAUAAGCUGACGGACAUGGUCCUAACCACGCAGCCAAGUCCUAAGUCAACAGAUCUUCUGUUGAUAUGGAUGCAGUUCACAGACUAAAUGUCGGUCGGGGAAGAUGUAUUCUUCUCAUAAGAUAUAGUCGGACCUCUCCUUAAUGGGAGCUAGCGGAUGAAGUGAUGCAACACUGGAGCCGCUGGGAACUAAUUUGUAUGCGAAAGUAUAUUGAUUAGUUUUGGAGUACUCGUGGUCG
How it was run: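 Colonies from six replicate transformations of E. coli BL21(DE3) were pooled and amplicon-sequenced on an Illumina HiSeq 2500. The library placed an intron with all eight P1ex-region nucleotides randomised inside the knt kanamycin-resistance gene on pET-22b(+), and cells grew overnight at 37°C or 30°C on LB agar with or without 25 μg/mL kanamycin (plus 100 μg/mL carbenicillin, 50 μM IPTG, 0.2% rhamnose). Fitness is the DiMSum error-weighted combination of wild-type-normalised replicate fold changes, kanamycin versus none.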

Sequence | self-splicing fitness (ln) (30 °C) | self-splicing fitness (ln) (37 °C)
CCCGAGCAAUAUUACGUCCU | -3.97 ± 0.39 | -2.75 ± 0.39
GCACAGCAAUAUUACGCAUC | -1.07 ± 0.083 | -0.51 ± 0.096
CGCCAGCAAUAUUACGCGUC | -3.41 ± 0.17 | -2.33 ± 0.15
AGAAAGCAAUAUUACGUACU | -0.412 ± 0.096 | 0.261 ± 0.11
GUAUAGCAAUAUUACGUAAA | -2.75 ± 0.31 | -1.66 ± 0.31
GCUAAGCAAUAUUACGGCAG | -3.28 ± 0.34 | -2.85 ± 0.34
CGGCAGCAAUAUUACGCUCU | -2.11 ± 0.14 | -0.612 ± 0.16
AUAUAGCAAUAUUACGUUGA | -2.63 ± 0.22 | -2.53 ± 0.26
ACACAGCAAUAUUACGGGUG | -1.31 ± 0.053 | -0.999 ± 0.065
CUAAAGCAAUAUUACGCAUA | -3.66 ± 0.23 | -2.65 ± 0.24
GCUCAGCAAUAUUACGUAUC | -0.849 ± 0.078 | 0.011 ± 0.077
CCCUAGCAAUAUUACGGUUA | -4.05 ± 0.35 | -2.71 ± 0.21
UAUCAGCAAUAUUACGAGAG | -3.03 ± 0.15 | -0.0372 ± 0.092
AUCUAGCAAUAUUACGAGUG | -1.41 ± 0.078 | -1.32 ± 0.12
AGGAAGCAAUAUUACGAAUG | -4.53 ± 0.46 | -2.8 ± 0.28
AUGUAGCAAUAUUACGGGUU | -2.26 ± 0.1 | -2.23 ± 0.19
GCUUAGCAAUAUUACGGUCU | -0.834 ± 0.083 | -0.0218 ± 0.11
UUGGAGCAAUAUUACGUCGA | -2.6 ± 0.3 | 0.049 ± 0.27
UACCAGCAAUAUUACGGAGU | -3.23 ± 0.13 | -2.4 ± 0.17
ACUAAGCAAUAUUACGGGAA | -2.17 ± 0.11 | -1.75 ± 0.15

Sequence | self-splicing fitness (ln) (30 °C) | self-splicing fitness (ln) (37 °C)
GUGGAGCAAUAUUACGGGCC | – | -0.665 ± 0.48
GGGAAGCAAUAUUACGAAAU | -3.24 ± 0.19 | -2.26 ± 0.22
GCCCAGCAAUAUUACGGGAU | -1.74 ± 0.081 | -1.25 ± 0.1
GUUAAGCAAUAUUACGUGGC | – | -2.1 ± 0.33
UCUUAGCAAUAUUACGAGCG | -1.36 ± 0.13 | -0.498 ± 0.15
CAUCAGCAAUAUUACGUGUG | -2.72 ± 0.092 | -1.38 ± 0.08
UACUAGCAAUAUUACGAUUU | -2.36 ± 0.12 | -0.92 ± 0.15
CUCGAGCAAUAUUACGGGAC | -3.8 ± 0.24 | -2.41 ± 0.27
GCUCAGCAAUAUUACGCUCC | -1.05 ± 0.15 | 0.283 ± 0.26
GGACAGCAAUAUUACGUGGA | -1.08 ± 0.076 | -1.29 ± 0.075
GCGCAGCAAUAUUACGGCGU | -3.18 ± 0.33 | –
AUUGAGCAAUAUUACGAGUC | -4.1 ± 0.34 | -2.38 ± 0.35
AAACAGCAAUAUUACGAAGC | -3.98 ± 0.2 | -2.75 ± 0.18
AAGGAGCAAUAUUACGAGCG | -2.53 ± 0.2 | -2.19 ± 0.49
UGACAGCAAUAUUACGUUAU | -3.65 ± 0.19 | -3.04 ± 0.21
AUGUAGCAAUAUUACGAGUA | -2.73 ± 0.17 | -1.72 ± 0.13
AACUAGCAAUAUUACGCGCC | -1.34 ± 0.12 | -0.314 ± 0.12
CAACAGCAAUAUUACGAGUA | -1.85 ± 0.1 | -1.04 ± 0.082
AUAUAGCAAUAUUACGAACG | -1.56 ± 0.18 | -0.154 ± 0.2
